Measurements: publication PMC6650551, “Identification of Dephospho-Coenzyme A (Dephospho-CoA) Kinase in Thermococcus kodakarensis and Elucidation of the Entire CoA Biosynthesis Pathway in Archaea” (mBio, 2019)

Key:
[1] = substrate: Nc1nc2c(ncn2[C@@H]2O[C@H](COP(=O)(O)OP(=O)(O)OP(=O)(O)O)[C@@H](O)[C@H]2O)c(=O)[nH]1; experiment: purified protein; type: biochemical, Thermococcus kodakarensis; details: 1 mM dephospho-CoA, varied GTP, 5 mM MgCl2, 300 mM KCl, 50 mM Bicine pH 8.0, 80 °C
[2] = substrate: CC(C)(COP(=O)(O)OP(=O)(O)OC[C@H]1O[C@@H](n2cnc3c(N)ncnc32)[C@H](O)[C@@H]1O)[C@@H](O)C(=O)NCCC(=O)NCCS; experiment: purified protein; type: biochemical, Thermococcus kodakarensis; details: 5 mM GTP varied dephospho-CoA, 5 mM MgCl2, 300 mM KCl, 50 mM Bicine pH 8.0, 80 °C

B1: TK1697 protein (Tk-DPCK) (Thermococcus kodakarensis KOD1) (protein)
chain: MKMFFRLTRELRDELKRPLGELVRGPIPEPYLKVRGELEKHPVVTVGDVVTENVLKIGVKPIIALYDLKTKRKEYSPEIEDTAVFLTVTNPPGTITKALLDTVRKAFGLAERGRNVHILVSGEEDLAAIPAVLYAPLGTLVLYGQPDEGVVLIKVTPECKRRCAKILASMEVVRDGD
notes: full-length gene in pET21a(+) (NdeI/EcoRI, own stop codon, untagged), expressed in E. coli BL21-CodonPlus(DE3)-RIL; calculated 19,657 Da
Work on B1 yielded a Km [1] of 260 ± 60 µM, a Vmax [1] of 20.4 µmol/min/mg and a kcat [1] of 6.68 s⁻¹. For the same protein, the kcat/Km [1] was 25700 M⁻¹ s⁻¹, the Km [2] was 140 ± 20 µM and the Vmax [2] was 17 µmol/min/mg. For the same protein, the kcat [2] was 5.57 s⁻¹ and the kcat/Km [2] was 40400 M⁻¹ s⁻¹.
